This data set in a line: yeast display, Sf9 membrane polyspecificity reagent, FACS + sequencing; frameworks hold sequencing errors. In short, it runs like this:
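Galactose-induced (36–48 hours) yeast carrying a synthetic nanobody display library were exposed to 10% biotinylated, detergent-solubilized Sf9 membrane reagent at 4 °C for 1 hour. FACS followed streptavidin microbead enrichment, using low and high (top ~1%) gates for expression (anti-HA) and reagent binding (streptavidin). Colony PCR, MiSeq 2 × 250 sequencing and CDR-length filtering followed. Labels for polyreactivity reflect the gate of origin.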
Take “QVQLVESGGGLVQAGGSLRLSCAASGRIFEWNTMGWYRQAPGKEREVVATISWDGGSTYYADSVKGRFTISRDNAKNTVYLQMNSLIPEDTAVYYCNKSPLNFFRFRATYDYWGQGTQVTVSS”: the “polyreactivity (PSR sort gate)” value is “low polyreactivity”.

Regarding “QVQLVESGGGLVQAGGSLRLSCAASGRIFFANAMGWYRQAPGKERELVAAITSDGSTDYADSVKGRFTISRDNAKNTVYLQMNSLKPEDTAVYYCNADAYYRYGITMDYWGQGTQVTVSS”, the “polyreactivity (PSR sort gate)” value is recorded as “low polyreactivity”.

As for “QVQLVESGGGLVQAGGSLRLSCAASGRIFFANTMGWYRQAPGKERELVAAISLSSGSTYYADSVKGRFTISRDNAKNTVYLQMNSLKPEDTAVYYCAARGYSHVASRLYYYWGQGTQVTVSS”, the “polyreactivity (PSR sort gate)” value is recorded as “high polyreactivity”.

“QVQLVESGGGLVQAGGSLRLSCAASGRIFFANTMGWYRQAPGKERELVAAISLSSGTTYYADSVKGRFTISRDNAKNTVYLQMNSLKPDETAVYYCAARGYSHVASRLYYYWGQGTQVTVSS”: the “polyreactivity (PSR sort gate)” value is on record as “high polyreactivity”.

Regarding “QVQLVESGGGLVQAGGSLRLSCAASGRIFFATAMGWYRQAPGNERELVAAITSDGSTDYADSVKGRFTISRDNAKNTVYLQMNSLKPEDTAVYDCNADAYYRYGITMDYWGQGTQVTVSS”, the “polyreactivity (PSR sort gate)” value was “low polyreactivity”.

Regarding “QVQLVESGGGLVQAGGSLRLSCAASGRIFFFNTMGWYRQAPGKERELVARINRGGRTNYADSVKGRFTISRDNAKNTVYLQMNSLKPEDTAVYYCAADRTWYKLETTEYDYWGQGTQVTVSS”, the “polyreactivity (PSR sort gate)” value is “high polyreactivity”.

As for “QVQLVESGGGLVQAGGSLRLSCAASGRIFFHNAMGWYIQAPGKERELVATISWSGSSTYYADSVKGRFTISRDNAKNTVYLQMNSLKPEYTAVYYCNAVYGRFVVLRYDYWGQGTQVTVSS”, the “polyreactivity (PSR sort gate)” value is “high polyreactivity”.

As for “QVQLVESGGGLVQAGGSLRLSCAASGRIFFLYAMGWYRQAPGKERELVASITRRGGSTYYADSVKGRFTISRDNAKNTVYLQMKSLKPEDTAVYYCAAELYRSNVYHYDYWGQGTQVTVSS”, the “polyreactivity (PSR sort gate)” value was “high polyreactivity”.

Take “QVQLVESGGGLVQAGGSLRLSCAASGRIFFLYAMGWYRQAPGKERELVASITRRGGSTYYADSVKGRVTISRDNAKNTVYLQMTSLKPEDTAVYYCAAELYRSNVYHYDYWGQGTQVTVSS”: the “polyreactivity (PSR sort gate)” value is “high polyreactivity”.

On to “QVQLVESGGGLVQAGGSLRLSCAASGRIFFNYAMGWYIQAPGKERELVARITGSGGRTYYADSVKGRFTISRDNAKNTVYLQMNSLKPEDTAVYYCNKVPGYKYDSWGQGTQVTVSS”, for which the “polyreactivity (PSR sort gate)” value is “high polyreactivity”.

As to “QVQLVESGGGLVQAGGSLRLSCAASGRIFFNYAMGWYRQAPGKQRELDAAITTNGGSTYYAVSVKGRFTISRDNAKNTVYLLMNSLKPEDTAVYYCNTRRKNFVKSSQVEYWGQGTQVTVSS”, the “polyreactivity (PSR sort gate)” value is given as “high polyreactivity”.

As for “QVQLVESGGGLVQAGGSLRLSCAASGRIFFRNAMGWYRQAPGKEREFVAAINWSGGSTYYADSVKGRFTISRDNAKNTVYLQMNSLKPEDTAVYYCAARGSRGGRRGATASMDYWGQGTQVTVSS”, the “polyreactivity (PSR sort gate)” value is given as “high polyreactivity”.

On to “QVQLVESGGGLVQAGGSLRLSCAASGRIFFRYAMGWYRQAPGKERELVAAISYSGGSTYYADSVKGRFTISRDNAKNTVYLQMNSLKPDDTAVYYCATGPVYEYDYWGQGTQVTVSS”, for which the “polyreactivity (PSR sort gate)” value is “low polyreactivity”.

In the case of “QVQLVESGGGLVQAGGSLRLSCAASGRIFFVNAMGWYRQAPGKERELVAAITYSGARTYYADSVKGRFTISRDHAKNTVYLQMNSLKPEDTAVYYCNADQRTASDQLEFDYWGQGTQVTVSS”, the “polyreactivity (PSR sort gate)” value is “low polyreactivity”.

For “QVQLVESGGGLVQAGGSLRLSCAASGRIFFWYAMGWYRQAPGKERELVAAISKSGGSTYYADSVKGRFTISRDNAKNTVYLQMNSLKPEDTAVYYCARVSKRTWSGYYYWGQGTQVTVSS”, the “polyreactivity (PSR sort gate)” value is on record as “high polyreactivity”.

“QVQLVESGGGLVQAGGSLRLSCAASGRIFFYNAMGWYRQAHGKERELVAAISARGDRTYYADSVKGRFTISRDNAKNTVYLQMNSLKPEDTAVYYCAADYYNYRYDYWGQGTQVTVSS”: the “polyreactivity (PSR sort gate)” value was “high polyreactivity”.

Regarding “QVQLVESGGGLVQAGGSLRLSCAASGRIFFYNAMGWYRQAPGKERELVATIRGGGSTNYADSVKGRFTISRDNAKNTVYLQMNSLKPEDTAVYYCAARRGSYSVTEYWGQGTQVTVSS”, the “polyreactivity (PSR sort gate)” value is on record as “high polyreactivity”.

On to “QVQLVESGGGLVQAGGSLRLSCAASGRIFFYNAMGWYRQAPGKETELVAAISSSGGSTSYADSVKGRFTISRDIAKNTVYLHMNSLKPEDTAVYYCAVDDPYYEKYDYWGQGTQVTVSS”, for which the “polyreactivity (PSR sort gate)” value is “low polyreactivity”.

On to “QVQLVESGGGLVQAGGSLRLSCAASGRIFFYYAMGWYRQAPGKERELVAAINRGGRTYYADSVKGRFTISRDNAKNTVYLQMNSLKPEDTAVYYCAADGQTAKSNFDYWGQGTQVTVSS”, for which the “polyreactivity (PSR sort gate)” value is given as “low polyreactivity”.

On to “QVQLVESGGGLVQAGGSLRLSCAASGRIFFYYAMGWYRQAPGKERELVAAIRSGGSTNYADSVKGRFTISRDNAKNTVYLQMNSLKPEDTAVYYCAADPSRYYTRRYYYWGQGTQVTVSS”, for which the “polyreactivity (PSR sort gate)” value is listed as “high polyreactivity”.

As to “QVQLVESGGGLVQAGGSLRLSCAASGRIFFYYAMGWYRQAPGKERELVAAISNSGGGTYYADSVKGRFTISRDNAKNTVYLQMNSLKPEDTAVYYCAREAGRYAYKYYWWQRPDYDYWGQGTQVTVSS”, the “polyreactivity (PSR sort gate)” value is listed as “low polyreactivity”.

For the sequence “QVQLVESGGGLVQAGGSLRLSCAASGRIFFYYAMGWYRQAPGKERELVATITASGDSTYYADSVKGRFTISRDNAKNTVYLQMNSLKPEDTAVYYCAADDGDYYEVDYWGQGTQVTVSS”, the “polyreactivity (PSR sort gate)” value is “low polyreactivity”.

In the case of “QVQLVESGGGLVQAGGSLRLSCAASGRIFGAYALGWSRQAPGKEMELVADIRSTGSTYYADSVKGRFTISRDNAKNTVYLQMNSLKPEDTAVYYCAAKYWKWYHYGFGYWGQGTQVTVSS”, the “polyreactivity (PSR sort gate)” value is “high polyreactivity”.

As for “QVQLVESGGGLVQAGGSLRLSCAASGRIFGAYAMGWYRPAPGKERELVAAISARGGRTYYADSVKGRFTISRDNAKNTVYLQMNSLKPEDTAVYYCAKTLRDPYRYDYWGQGTQVTVSS”, the “polyreactivity (PSR sort gate)” value was “high polyreactivity”.

For “QVQLVESGGGLVQAGGSLRLSCAASGRIFGAYAMGWYRQAPGKERELVAAISSRGGNTYYADSVKGRFTISRDNAKNTVYLQMNSLKPEDTAVYYCAARHDKRRQYYVGQSDFDYWGQGTQVTVSS”, the “polyreactivity (PSR sort gate)” value is listed as “low polyreactivity”.

Regarding “QVQLVESGGGLVQAGGSLRLSCAASGRIFGAYAMGWYRQAPGKERELVATITKRGGSTFYADSVKGRFTISRDNAKNTVYVKMNSLKPEDTAVYYCAVVRYSPKRYWYGYWGQGTQVTVSS”, the “polyreactivity (PSR sort gate)” value was “high polyreactivity”.

Take “QVQLVESGGGLVQAGGSLRLSCAASGRIFGAYAMGWYRQAPGKEREWVAVINWRSGGTYYADSVKGRFTISRDNAKNTVYLQMNSLKPVDTAVYYCAADDYGFFSAGDFDYWGHGTQVTVSS”: the “polyreactivity (PSR sort gate)” value was “high polyreactivity”.

For “QVQLVESGGGLVQAGGSLRLSCAASGRIFGDYALGWYRQAPGKERELVAAISWSDGSTYYADSVKGRFTISRDKAKNTVYLQMNSLKPEDTAVYYCAAYGWGYSYVDVVVSDFYYWGQGTQVTVSS”, the “polyreactivity (PSR sort gate)” value is reported as “low polyreactivity”.

Turning to “QVQLVESGGGLVQAGGSLRLSCAASGRIFGDYGMGWYRQAPGKERELVAAITDRGGPTYYADSVKGRFTISRDNAKNTVYLQRNSLKPEDTAVYYCNARQSDIFDYDYWGQGTQVTVSS”, the “polyreactivity (PSR sort gate)” value is reported as “low polyreactivity”.

“QVQLVESGGGLVQAGGSLRLSCAASGRIFGDYGMGWYRQAPGNERELVAAITDRGGTTYYADSVKGRFTISRDNAKNTVYLQMNSLKPEDTAVYYCNARQSDIFDYDYWGQGTQVTVSS”: the “polyreactivity (PSR sort gate)” value is “low polyreactivity”.

Take “QVQLVESGGGLVQAGGSLRLSCAASGRIFGENAMGWYRQAPGKEREFVAVISISDASTYYADSVKGRFTISRDNAKNTVYLQMNSLKPEDTAVYYCNTDYINGYYIEGEPPYKFDYWGQGTQVTVSS”: the “polyreactivity (PSR sort gate)” value is “low polyreactivity”.

Take “QVQLVESGGGLVQAGGSLRLSCAASGRIFGFNTMGWYRQAPGKERELVAAITSGGSTYADSVKGRFTISRDNAKNTVYLQMNSLKPEDTAVYYCNTRFYRPLWGYNYWGQGTQVTVSS”: the “polyreactivity (PSR sort gate)” value is “low polyreactivity”.

In the case of “QVQLVESGGGLVQAGGSLRLSCAASGRIFGGNAMGWSRQAPGKERELVAAISWSGGSTYADSVKGRFTISRDNAKNTVYLQMNSLKPEDTAVYYCATRLVKYYYYDYRTYGRRYDYWGQGTQVTVSS”, the “polyreactivity (PSR sort gate)” value is on record as “high polyreactivity”.

As for “QVQLVESGGGLVQAGGSLRLSCAASGRIFGGYALGWYRQAPGKERELVAAITRSGGSTYYADSVKGRFTISRDNAKNTVYVQMNSLKPEDTAVYYCAARNYYSWRYDYWGQGTQVTVSS”, the “polyreactivity (PSR sort gate)” value is “high polyreactivity”.

Regarding “QVQLVESGGGLVQAGGSLRLSCAASGRIFGGYAMGWYRQAPGKERELVASITGGGTTDYADSVKGRFTISRDNAKNTVYLQMNSLKPEDTAVYNCAIRTHQFGVSRSYNTYYYWGQGTQVTVSS”, the “polyreactivity (PSR sort gate)” value is “low polyreactivity”.

As to “QVQLVESGGGLVQAGGSLRLSCAASGRIFGGYAMGWYRQAPGKERELVPSITGRATSTYYADSVKGRFTISRDNAKNTVYLQMNRLKPEDTAVYYFNALYRKYRNQWYISNYGYYYWGQGTQVTVSS”, the “polyreactivity (PSR sort gate)” value is “low polyreactivity”.

As to “QVQLVESGGGLVQAGGSLRLSCAASGRIFGHYAMGWYRQAPGKERELVAAISRSGTRTYYADSVKGRFTISRDNAKNTVYLQMNSLKPEDTAVYYCAAYTYKGIYYYWGQGTQVTVSS”, the “polyreactivity (PSR sort gate)” value is reported as “high polyreactivity”.

For “QVQLVESGGGLVQAGGSLRLSCAASGRIFGHYAMGWYRQAPGKERELVASISSNGGSTYYADSVKGRFTISRDNAKNTVYLQINSLKPEDTAVYYCAARVSTVFKRYYYWGQGTQVTVSS”, the “polyreactivity (PSR sort gate)” value is recorded as “high polyreactivity”.

For the sequence “QVQLVESGGGLVQAGGSLRLSCAASGRIFGHYVMGWYRQAPRKERELDAAITRGDSTYYADSVKGRFTISRDNAKNTVYLEMNSLKPEDTAVYYCAARVWRVDARDRYYWGQGTQVTVSS”, the “polyreactivity (PSR sort gate)” value is given as “high polyreactivity”.

Regarding “QVQLVESGGGLVQAGGSLRLSCAASGRIFGINAMGWYRQAPGKERELVAAISWRSGSTYYADSVKGRFTISRDNAKNTVYLQMNSLKPEDTAVYYCAAKQDQDYYWGQGTQVTVSS”, the “polyreactivity (PSR sort gate)” value is reported as “low polyreactivity”.

The values above are taken from the nanobody polyreactivity screen of Harvey et al. (2022).
